Laboratory results published in article PMC9482650, “Quantitative fragmentomics allow affinity mapping of interactomes” (Nature Communications, 2022).

How the values were obtained:
Assay in all cases: holdup assay
Set-up in all cases: key: below the threshold = too weak to quantify, mostly under pKd 3.1 to 4
Details in all cases: plain residues with an end cap or a label only (N-terminal biotin on a linker: ado-ado)
[1] = biological target: GRID2IP_2, A4D2P6
[2] = biological target: T1, APBA1_2, Q02410
T1 sequence (Q02410 742-832, limits assumed, looked up): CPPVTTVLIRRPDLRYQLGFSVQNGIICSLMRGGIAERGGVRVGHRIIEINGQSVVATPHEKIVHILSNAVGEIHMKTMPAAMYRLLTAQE

[3] = biological target: T2, DFNB31_3, Q9P202
T2 sequence (Q9P202 811-907, limits assumed, looked up): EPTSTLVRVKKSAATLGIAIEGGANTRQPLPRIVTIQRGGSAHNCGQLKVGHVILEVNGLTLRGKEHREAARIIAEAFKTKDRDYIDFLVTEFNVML

[4] = biological target: DLG1_1, Q12959
[5] = biological target: AHNAK1, Q09666
[6] = biological target: PDZRN4_1, Q6ZMN7
[7] = biological target: T3, PTPN13_1, Q12923
T3 sequence (Q12923 1088-1188, limits assumed, looked up): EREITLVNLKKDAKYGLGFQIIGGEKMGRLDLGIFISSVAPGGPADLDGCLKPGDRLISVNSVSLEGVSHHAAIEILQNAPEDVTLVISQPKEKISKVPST

[8] = biological target: T4, SYNJ2BP, P57105
T4 sequence (P57105 8-110, limits assumed, looked up): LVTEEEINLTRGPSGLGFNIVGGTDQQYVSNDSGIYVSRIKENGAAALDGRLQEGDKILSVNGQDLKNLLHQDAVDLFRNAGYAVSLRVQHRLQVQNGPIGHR

[9] = biological target: T5, MPDZ_12, O75970
T5 sequence (O75970 1857-1958, limits assumed, looked up): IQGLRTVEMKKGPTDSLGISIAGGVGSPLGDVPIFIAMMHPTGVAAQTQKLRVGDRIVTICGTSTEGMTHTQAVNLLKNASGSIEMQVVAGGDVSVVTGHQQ

[10] = biological target: MAGI1_1, Q96QZ7
[11] = biological target: DLG4_3, P78352
[12] = biological target: DLG5_1, Q8TDM6
[13] = biological target: T6, GRIP1_3, Q9Y3R0
T6 sequence (Q9Y3R0 247-346, limits assumed, looked up): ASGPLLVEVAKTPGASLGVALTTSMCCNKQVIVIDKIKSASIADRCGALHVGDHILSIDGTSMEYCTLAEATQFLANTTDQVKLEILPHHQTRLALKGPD

[14] = biological target: T7, SHANK1, Q9Y566
T7 sequence (Q9Y566 658-767, limits assumed, looked up): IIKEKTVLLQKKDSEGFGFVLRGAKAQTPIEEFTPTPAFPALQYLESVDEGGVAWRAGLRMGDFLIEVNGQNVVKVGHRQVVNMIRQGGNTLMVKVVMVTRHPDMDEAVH

[15] = biological target: GRID2IP_1, A4D2P6
[16] = biological target: T8, APBA3_1, O96018
T8 sequence (O96018 389-490, limits assumed, looked up): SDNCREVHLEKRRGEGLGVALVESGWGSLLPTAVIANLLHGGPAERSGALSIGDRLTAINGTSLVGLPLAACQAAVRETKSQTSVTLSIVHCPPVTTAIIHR

[17] = biological target: DLG4_2, P78352
[18] = biological target: NHERF2_2, Q15599
[19] = biological target: Inadl_8, Q8NI35
[20] = biological target: FRMPD2_3, Q68DX3
[21] = biological target: T9, GRIP1_7, Q9Y3R0
T9 sequence (Q9Y3R0 999-1096, limits assumed, looked up): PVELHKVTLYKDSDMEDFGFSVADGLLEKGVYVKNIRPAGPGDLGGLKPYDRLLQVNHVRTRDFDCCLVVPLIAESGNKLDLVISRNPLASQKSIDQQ

[22] = biological target: T10, PDZD7_3, Q9H5P4
T10 sequence (Q9H5P4 857-944, limits assumed, looked up): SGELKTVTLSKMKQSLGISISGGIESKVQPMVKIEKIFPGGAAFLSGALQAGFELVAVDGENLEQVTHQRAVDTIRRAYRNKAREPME

[23] = biological target: T11, MPP6, Q9NZW5
T11 sequence (Q9NZW5 125-219, limits assumed, looked up): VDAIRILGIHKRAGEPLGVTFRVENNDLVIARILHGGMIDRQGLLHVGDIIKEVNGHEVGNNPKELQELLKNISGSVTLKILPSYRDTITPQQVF

[24] = biological target: TJP1_3, Q07157
[25] = biological target: MAGI1_2, Q96QZ7
[26] = biological target: T12, DFNB31_1, Q9P202
T12 sequence (Q9P202 135-233, limits assumed, looked up): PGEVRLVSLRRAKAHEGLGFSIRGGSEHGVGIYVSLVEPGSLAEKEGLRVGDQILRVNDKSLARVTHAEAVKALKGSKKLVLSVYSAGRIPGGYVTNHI

Chain of DLG5_1, Q8TDM6 (Q8TDM6 617-713): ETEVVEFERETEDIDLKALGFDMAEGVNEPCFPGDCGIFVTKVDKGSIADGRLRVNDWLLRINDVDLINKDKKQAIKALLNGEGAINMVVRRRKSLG
Chain of NHERF2_2, Q15599 (Q15599 142-238): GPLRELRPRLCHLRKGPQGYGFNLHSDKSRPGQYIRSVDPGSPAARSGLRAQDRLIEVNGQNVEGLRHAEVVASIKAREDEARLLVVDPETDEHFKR
Chain of MAGI1_2, Q96QZ7 (Q96QZ7 456-580): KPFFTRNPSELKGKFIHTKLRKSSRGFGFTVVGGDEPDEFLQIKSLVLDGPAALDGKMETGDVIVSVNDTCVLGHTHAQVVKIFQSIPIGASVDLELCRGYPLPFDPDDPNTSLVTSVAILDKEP
Chain of AHNAK1, Q09666 (Q09666 4-100): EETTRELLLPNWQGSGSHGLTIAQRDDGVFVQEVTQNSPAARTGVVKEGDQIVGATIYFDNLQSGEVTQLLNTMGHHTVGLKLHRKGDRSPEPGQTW
Chain of MAGI1_1, Q96QZ7 (Q96QZ7 1-106): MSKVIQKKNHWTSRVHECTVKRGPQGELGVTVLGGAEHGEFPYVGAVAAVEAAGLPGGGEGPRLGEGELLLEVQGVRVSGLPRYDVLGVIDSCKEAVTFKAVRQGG
Chain of GRID2IP_1, A4D2P6 (A4D2P6 1-87): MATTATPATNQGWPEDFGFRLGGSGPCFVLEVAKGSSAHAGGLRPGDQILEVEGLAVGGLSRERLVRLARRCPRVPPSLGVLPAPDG
Chain of FRMPD2_3, Q68DX3 (Q68DX3 1073-1166): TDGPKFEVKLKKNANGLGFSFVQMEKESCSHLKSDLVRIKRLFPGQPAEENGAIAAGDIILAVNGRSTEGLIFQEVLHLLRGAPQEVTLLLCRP
Chain of Inadl_8, Q8NI35 (Q8NI35 1425-1530): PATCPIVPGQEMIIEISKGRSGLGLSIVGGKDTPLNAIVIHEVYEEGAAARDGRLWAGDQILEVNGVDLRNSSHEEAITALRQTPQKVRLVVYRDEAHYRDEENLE
Chain of DLG4_3, P78352 (P78352 306-403): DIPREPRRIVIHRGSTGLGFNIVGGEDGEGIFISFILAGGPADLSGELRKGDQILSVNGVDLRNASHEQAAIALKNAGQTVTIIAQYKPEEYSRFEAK
Chain of GRID2IP_2, A4D2P6 (A4D2P6 272-370): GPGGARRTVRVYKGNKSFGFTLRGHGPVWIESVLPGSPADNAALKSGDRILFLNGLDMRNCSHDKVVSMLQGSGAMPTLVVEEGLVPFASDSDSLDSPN
Chain of TJP1_3, Q07157 (Q07157 416-512): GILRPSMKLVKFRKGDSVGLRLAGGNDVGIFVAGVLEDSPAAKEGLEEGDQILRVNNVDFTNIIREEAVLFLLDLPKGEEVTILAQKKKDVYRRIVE
Chain of DLG4_2, P78352 (P78352 155-259): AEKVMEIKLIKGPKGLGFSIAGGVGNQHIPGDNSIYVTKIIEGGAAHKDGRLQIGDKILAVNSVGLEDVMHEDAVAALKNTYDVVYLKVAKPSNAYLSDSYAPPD
Chain of PDZRN4_1, Q6ZMN7 (Q6ZMN7 213-318): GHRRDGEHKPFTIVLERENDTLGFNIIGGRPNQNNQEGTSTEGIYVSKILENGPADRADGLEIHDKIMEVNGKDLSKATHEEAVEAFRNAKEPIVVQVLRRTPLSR

| Binder | pKd [1] | pKd [2] | pKd [3] | pKd [4] | pKd [5] | pKd [6] | pKd [7] | pKd [8] | pKd [9] | pKd [10] | pKd [11] | pKd [12] | pKd [13] | pKd [14] | pKd [15] | pKd [16] | pKd [17] | pKd [18] | pKd [19] | pKd [20] | further results |
| --- | --- | --- | --- | --- | --- | --- | --- | --- | --- | --- | --- | --- | --- | --- | --- | --- | --- | --- | --- | --- | --- |
| ATKDKKITTV [EXOC4, Q96A65] | 3.98 | 3.82 | below the threshold | 5.05 | below the threshold | 3.82 | below the threshold | 4.14 | below the threshold | 3.61 | 4.5 | 3.59 | below the threshold | below the threshold | below the threshold | below the threshold | 5.85 | 3.6 | 4.42 | below the threshold | pKd [21]: 3.53; pKd [22]: 5.64; pKd [23]: below the threshold; pKd [24]: below the threshold; pKd [25]: 4.91; pKd [26]: 3.58 |
| FHSIKQSTAV [CRHR1, P34998] | 4.34 | 4.15 | below the threshold | 4.39 | below the threshold | 4.1 | below the threshold | 5.21 | below the threshold | below the threshold | 4.43 | below the threshold | below the threshold | 4.55 | below the threshold | below the threshold | 4.93 | below the threshold | 3.87 | below the threshold | pKd [21]: below the threshold; pKd [22]: 4.36; pKd [23]: 3.7; pKd [24]: below the threshold; pKd [25]: 5.05; pKd [26]: 4.39 |
